From patent US20150197559A1 (University of California, published 2015)

B1: 2B18.1 IgG (antibody, V domains shown)
VH: QVQLVQSGGGLVQPGGSRRLSCAASGFYFNAYWMTWVRQAPGKGLEWVANINLDGTEIYYLDSVKGRFTVSRDNVKNSVFLQMSSLRVEDTAVYFCARLEWGGRNGWVSPWGQGTLVTVSS
VL: DIVMTQSPSSLSASVGDRVSISCRASQSISSYLNWYQQKPGKAPKLLIYKTSSLESGVPSRFSGRGSGTDFTLTISSLQPEDFATYYCQQSYSTPLTFGGGTKVEIKR
B2: 2B18.1 scFv (scFv)
scFv: QVQLVQSGGGLVQPGGSRRLSCAASGFYFNAYWMTWVRQAPGKGLEWVANINLDGTEIYYLDSVKGRFTVSRDNVKNSVFLQMSSLRVEDTAVYFCARLEWGGRNGWVSPWGQGTLVTVSSGGGGSGGGGSGGGGSDIVMTQSPSSLSASVGDRVSISCRASQSISSYLNWYQQKPGKAPKLLIYKTSSLESGVPSRFSGRGSGTDFTLTISSLQPEDFATYYCQQSYSTPLTFGGGTKVEIKR

Legend:
[1] = target: T1, BoNT/B1 (Clostridium botulinum, UniProt P10844 2-1291); test: KinExA flow fluorimetry, IgG in solution
T1 sequence: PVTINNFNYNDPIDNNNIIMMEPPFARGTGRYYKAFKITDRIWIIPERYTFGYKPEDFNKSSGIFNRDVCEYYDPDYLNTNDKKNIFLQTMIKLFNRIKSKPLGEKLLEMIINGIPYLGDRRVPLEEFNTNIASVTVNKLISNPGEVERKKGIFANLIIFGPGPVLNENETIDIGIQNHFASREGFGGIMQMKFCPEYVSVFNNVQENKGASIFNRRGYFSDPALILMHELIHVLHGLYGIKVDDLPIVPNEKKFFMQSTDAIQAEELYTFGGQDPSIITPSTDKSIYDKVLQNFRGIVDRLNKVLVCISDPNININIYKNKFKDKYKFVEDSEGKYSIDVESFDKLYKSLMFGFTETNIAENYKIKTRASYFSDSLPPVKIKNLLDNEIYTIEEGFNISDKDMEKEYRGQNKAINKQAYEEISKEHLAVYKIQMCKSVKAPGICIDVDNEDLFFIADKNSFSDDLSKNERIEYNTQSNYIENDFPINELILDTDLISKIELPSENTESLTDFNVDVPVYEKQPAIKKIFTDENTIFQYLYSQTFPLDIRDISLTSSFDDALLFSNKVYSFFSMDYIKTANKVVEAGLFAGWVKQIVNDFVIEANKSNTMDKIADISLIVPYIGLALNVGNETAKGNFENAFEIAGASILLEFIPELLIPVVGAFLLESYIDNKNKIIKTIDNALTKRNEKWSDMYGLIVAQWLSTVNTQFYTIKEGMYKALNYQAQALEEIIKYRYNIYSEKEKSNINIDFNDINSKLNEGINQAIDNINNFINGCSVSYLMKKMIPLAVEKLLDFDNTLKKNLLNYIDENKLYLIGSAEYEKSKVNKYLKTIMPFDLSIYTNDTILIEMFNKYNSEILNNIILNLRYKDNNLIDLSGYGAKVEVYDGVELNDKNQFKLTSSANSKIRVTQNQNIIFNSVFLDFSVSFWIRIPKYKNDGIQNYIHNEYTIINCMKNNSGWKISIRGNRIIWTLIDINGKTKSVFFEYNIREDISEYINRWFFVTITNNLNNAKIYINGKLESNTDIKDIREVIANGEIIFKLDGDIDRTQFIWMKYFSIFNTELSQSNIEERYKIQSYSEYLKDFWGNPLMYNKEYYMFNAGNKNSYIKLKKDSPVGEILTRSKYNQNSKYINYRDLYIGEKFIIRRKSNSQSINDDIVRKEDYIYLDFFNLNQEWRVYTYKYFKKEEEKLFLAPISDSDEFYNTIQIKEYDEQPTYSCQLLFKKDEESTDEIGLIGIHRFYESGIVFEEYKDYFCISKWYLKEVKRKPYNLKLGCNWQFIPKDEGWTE

[2] = target: T1, BoNT/B1; test: flow cytometry, yeast-displayed affinity matured scFv
[3] = target: T1, BoNT/B1; test: yeast-displayed scFv, flow cytometry; reference parental scFv 1B18

| Binder | Kd [1] [nM] | Kd [2] [nM] | Fold increase in affinity scFv (KD wild type/KD matured) [3] [fold] |
| --- | --- | --- | --- |
| B1 | 0.0724 | – | – |
| B2 | – | 0.638 | 11.4 |
